The nature of the series: patients with anti-drug antibodies; higher = more immunogenic.

B1: unnamed (protein)
chain 1: QVQLVQSGAEVKKPGASVKVSCKASGYTFTSYYMHWVRQAPGQGLEWMGEISPFGGRTNYNEKFKSRVTMTRDTSTSTVYMELSSLRSEDTAVYYCARERPLYASDLWGQGTTVTVSS
chain 2: DIQMTQSPSSLSASVGDRVTITCRASQGISSALAWYQQKPGKAPKLLIYSASYRYTGVPSRFSGSGSGTDFTFTISSLQPEDIATYYCQQRYSLWRTFGQGTKLEIK
For B1, the “patients with anti-drug antibodies” value is 25.5%.

B2: unnamed (protein)
chain 1: QVQLVESGGGVVQPGRSLRLSCAASGFTFSSYDMHWVRQAPGKGLEWVAVIWYDGSNKYYADSVKGRFTISRDNSKNTLYLQMNSLRAEDTAVYYCARGSGNWGFFDYWGQGTLVTVSS
chain 2: DIQMTQSPSSLSASVGDRVTITCRASQGISRWLAWYQQKPEKAPKSLIYAASSLQSGVPSRFSGSGSGTDFTLTISSLQPEDFATYYCQQYNTYPRTFGQGTKVEIK
As for B2, the “patients with anti-drug antibodies” value is 0%.

B3: unnamed (protein)
chain 1: EVQLVESGGGLVQPGGSLRLSCAASGFTFNTYAMYWIRQAPGKGLEWVARIRSKSNNYAIYYADSVKDRFTISRDDSKNSLYLQMNSLKTEDTAVYYCARPYSDSFAYWGQGTLVTVSS
chain 2: DVVMTQSPLSLPVTPGEPASISCRSSQSLVHSTGNTYLHWYLQKPGQSPQLLIYKVSNRFSGVPDRFSGSGSGTDFTLKISRVEAEDVGVYYCSQSTHVPFTFGGGTKVEIK
For the protein B3, the “patients with anti-drug antibodies” value is 0%.

B4: unnamed (protein)
chain 1: EVQLQQSGPELVKPGASVKMSCKASGYTFTSYVVHWVKQNPGQGLEWIGYINPFNDGTKYNENFKGKATLTSDRSSSTAYMELSSLTSEESAVYFCARDMGREGFAYWGQGTLVTVSA
chain 2: DIVMTQAAFSNPVTLGTSASISCRSSKSLLHSNGITYLYWYLQKPGQSPQLLIYQMSNLASGVPDRFSSSGSGTDFTLRISRVEAEDVGVYYCAQNLELPRTFGGGTKLEI
For the protein B4, the “patients with anti-drug antibodies” value was 100%.

B5: unnamed (protein)
chain 1: EVQLVQSGAEVKKPGASVKVSCKASGYTFTSYVIHWVRQRPGQGLAWMGYINPYNDGTKYNERFKGKVTITSDRSTSTVYMELSSLRSEDTAVYLCGREGIRYYGLLGDYWGQGTLVTVSS
chain 2: DIQMTQSPSSLSASVGDRVTITCGTSEDIINYLNWYQQKPGKAPKLLIYHTSRLQSGVPSRFSGSGSGTDFTLTISSLQPEDFATYYCQQGYTLPYTFGQGTKVEIK
As for B5, the “patients with anti-drug antibodies” value worked out at 13%.

B6: unnamed (protein)
chain 1: EVQLVESGGGLVQPGGSLRLSCAASGFTFSDYNMAWVRQAPGKGLEWVATITYEGRNTYYRDSVKGRFTISRDNAKNSLYLQMNSLRAEDTAVYYCASPPQYYEGSIYRLWFAHWGQGTLVTVSS
chain 2: AIQLTQSPSSLSASVGDRVTITCRADESVRTLMHWYQQKPGKAPKLLIYLVSNSEIGVPDRFSGSGSGTDFRLTISSLQPEDFATYYCQQTWSDPWTFGQGTKVEIK
Take B6: the “patients with anti-drug antibodies” value was 12.8%.

B7: unnamed (protein)
chain 1: QVQLQQPGAELVRPGASVKLSCKASGYTFTSYWINWVKQRPGQGLEWIGNIYPSDSYTNYNQKFKDKATLTVDKSSSTAYMQLSSPTSEDSAVYYCTRSWRGNSFDYWGQGTTLTVSS
chain 2: DIVMTQSPSSLTVTAGEKVTMSCKSSQSLLNSGNQKNYLTWYQQKPGQPPKLLIYWASTRESGVPDRFTGSGSGTDFTLTISSVQAEDLAVYYCQNDYSYPFTFGSGTKLEIK
As for B7, the “patients with anti-drug antibodies” value stood at 0%.

B8: unnamed (protein)
chain 1: ELQLQESGPGLVKPSETLSLTCTVSGGSISSGSYYWDWIRQPPGKGLEWIGNIYKSGSTYYNPSLKSRVTISVDTSKNQFSLKLSSVTAADTAVYYCARERGMHYMDVWGKGTTVTVSS
chain 2: DIQMTQSPSSLSASVGDRVTITCRASQSINSYLNWYQQKPGKAPKLLIYAASSLQSGVPSRFSGSGSGTDFTLTISSLQPEDFATYYCQQQFDPPFTFGGGTKVEIK
For B8, the “patients with anti-drug antibodies” value was 0%.

B9: unnamed (protein)
chain 1: QVQLQESGPGLVKPSETLSLTCTVSGFSLTNYGIHWIRQPPGKGLEWLGVIWARGFTNYNSALMSRLTISKDNSKNQVSLKLSSVTAADTAVYYCARANDGVYYAMDYWGQGTLVTVSS
chain 2: DFVMTQSPAFLSVTPGEKVTITCSAQSSVNYIHWYQQKPDQAPKKLIYDTSKLASGVPSRFSGSGSGTDYTFTISSLEAEDAATYYCQQWTTNPLTFGQGTKVEIK
Turning to B9, the “patients with anti-drug antibodies” value is 2.6%.

B10: unnamed (protein)
chain 1: EVQLVESGGGLVQPGGSLRLSCAASGYTFTNYGMNWVRQAPGKGLEWVGWINTYTGEPTYAADFKRRFTFSLDTSKSTAYLQMNSLRAEDTAVYYCAKYPHYYGSSHWYFDVWGQGTLVTVSS
chain 2: DIQMTQSPSSLSASVGDRVTITCSASQDISNYLNWYQQKPGKAPKVLIYFTSSLHSGVPSRFSGSGSGTDFTLTISSLQPEDFATYYCQQYSTVPWTFGQGTKVEIK
Regarding B10, the “patients with anti-drug antibodies” value is 0.3%.

B11: unnamed (protein)
chain 1: QVELVESGGGLVQPGGSLRLSCAASGFTFTSYWMSWVRQAPGKGLELVSSITSYGSFTYYADSVKGRFTISRDNSKNTLYLQMNSLRAEDTAVYYCARNMYTHFDSWGQGTLVTVSS
chain 2: DIVLTQPPSVSGAPGQRVTISCSGSSSNIGSNSVSWYQQLPGTAPKLLIYDNSKRPSGVPDRFSGSKSGTSASLAITGLQSEDEADYYCQSRDTYGYYWVFGGGTKLTVL
In the case of B11, the “patients with anti-drug antibodies” value was 2.3%.

B12: unnamed (protein)
chain 1: QVQLVESGGGVVQPGRSLRLSCAASGFTFSSYGMHWVRQAPGKGLEWVAVIWYDGSNEYYADSVKGRFTISRDNSKNTLYLQMNSLRAEDTAVYYCARDRGYTSSWYPDAFDIWGQGTMVTVSS
chain 2: QSVLTQPPSVSGAPGQRVTISCTGSSSNTGAGYDVHWYQQVPGTAPKLLIYGSGNRPSGVPDRFSGSKSGTSASLAITGLQAEDEADYYCQSYDSSLSGWVFGGGTRLTVL
As for B12, the “patients with anti-drug antibodies” value was 2.5%.

B13: unnamed (protein)
chain 1: EVQLVQSGAEVKKPGESLRISCKGSGYSFSTYWISWVRQMPGKGLEWMGKIYPGDSYTNYSPSFQGQVTISADKSISTAYLQWSSLKASDTAMYYCARGYGIFDYWGQGTLVTVSS
chain 2: SYELTQPPSVSVSPGQTASITCSGDNIGDQYAHWYQQKPGQSPVLVIYQDKNRPSGIPERFSGSNSGNTATLTISGTQAMDEADYYCATYTGFGSLAVFGGGTKLTVL
As to B13, the “patients with anti-drug antibodies” value was found to be 40.7%.

B14: unnamed (protein)
chain 1: QLQLQESGPGLLKPSETLSLTCTVSGGSISSPGYYGGWIRQPPGKGLEWIGSIYKSGSTYHNPSLKSRVTISVDTSKNQFSLKLSSVTAADTAVYYCTRPVVRYFGWFDPWGQGTLVTVSS
chain 2: AIQLTQSPSSLSASVGDRVTITCRASQGISSALAWYQQKPGKAPKLLIYDASNLESGVPSRFSGSGSGTDFTLTISSLQPEDFATYYCQQFNSYPTFGQGTKVEIK
On to B14, for which the “patients with anti-drug antibodies” value came out at 2.2%.

B15: unnamed (protein)
chain 1: QVQLVQSGAEVKKPGASVKVSCKGSGYTFTSYWMHWVRQAPGQRLEWIGEIDPSESNTNYNQKFKGRVTLTVDISASTAYMELSSLRSEDTAVYYCARGGYDGWDYAIDYWGQGTLVTVSS
chain 2: DVVMTQSPLSLPVTPGEPASISCRSSQSLAKSYGNTYLSWYLQKPGQSPQLLIYGISNRFSGVPDRFSGSGSGTDFTLKISRVEAEDVGVYYCLQGTHQPYTFGQGTKVEIK
Consider B15, for which the “patients with anti-drug antibodies” value was 9.5%.

B16: unnamed (protein)
chain 1: EVQLQQSGAELVKPGASVKLSCTASGFNIKDTYVHWVKQRPEQGLEWIGRIDPANGYTKYDPKFQGKATITADTSSNTAYLQLSSLTSEDTAVYYCVRPLYDYYAMDYWGQGTSVTVSS
chain 2: DILMTQSPSSMSVSLGDTVSITCHASQGISSNIGWLQQKPGKSFMGLIYYGTNLVDGVPSRFSGSGSGADYSLTISSLDSEDFADYYCVQYAQLPYTFGGGTKLEIK
Turning to B16, the “patients with anti-drug antibodies” value came to 35.5%.

B17: unnamed (protein)
chain 1: QVQLVESGGGVVQPGRSLRLSCAASGFTFSTYGMHWVRQAPGKGLEWVAVIWDDGSYKYYGDSVKGRFTISRDNSKNTLYLQMNSLRAEDTAVYYCARDGITMVRGVMKDYFDYWGQGTLVTVSS
chain 2: AIQLTQSPSSLSASVGDRVTITCRASQDISSALVWYQQKPGKAPKLLIYDASSLESGVPSRFSGSESGTDFTLTISSLQPEDFATYYCQQFNSYPLTFGGGTKVEIK
With B17, the “patients with anti-drug antibodies” value was 0%.

B18: unnamed (protein)
chain 1: QVQLQQSGAELVRPGSSVKISCKASGYAFSSYWMNWVKQRPGQGLEWIGQIWPGDGDTNYNGKFKGKATLTADESSSTAYMQLSSLASEDSAVYFCARRETTTVGRYYYAMDYWGQGTTVTVSS
chain 2: DIQLTQSPASLAVSLGQRATISCKASQSVDYDGDSYLNWYQQIPGQPPKLLIYDASNLVSGIPPRFSGSGSGTDFTLNIHPVEKVDAATYHCQQSTEDPWTFGGGTKLEIK
For the protein B18, the “patients with anti-drug antibodies” value is 1.4%.

B19: unnamed (protein)
chain 1: QVQLQQSGAEVKKPGSSVKVSCKASGYTFTSYNMHWVKQAPGQGLEWIGAIYPGMGDTSYNQKFKGKATLTADESTNTAYMELSSLRSEDTAFYYCARSTYYGGDWYFDVWGQGTTVTVSS
chain 2: DIQLTQSPSSLSASVGDRVTMTCRASSSVSYIHWFQQKPGKAPKPWIYATSNLASGVPVRFSGSGSGTDYTFTISSLQPEDIATYYCQQWTSNPPTFGGGTKLEIK
For the protein B19, the “patients with anti-drug antibodies” value came to 19.5%.

The record behind these values is the FLAb antibody collection.
